Data taken from patent US7402417B2, “P450 oxygenases and methods of use” (Washington State University Research Foundation, priority 2003, dated 2008).

Columns and labels:
[1] = substrate: [H][C@]12CCC(C)=C(CC[C@]3(C)CCC=C(C)[C@@]3([H])C1)C2(C)C; experiment: Kinetic evaluation with Sf9 microsomes enriched in recombinant 5α-hydroxylase (radio-HPLC, Michaelis-Menten); type: biochemical, Taxus cuspidata; settings: other: Sf9 microsomes, recombinant enzyme, 200 μM NADPH plus regenerating system; pH 7.5
Procedure: (§1) Kinetic constants for both isomers were next evaluated (at a saturating 200 μM concentration of NADPH plus regenerating system; Shimada and Yamazai, Meth. Mol. Biol., 107:85-93, 1998). The isolated microsomes were resuspended in 50 mM Hepes, pH 7.5, containing 1 mM DTT and 5% (v/v) glycerol, and the 1 ml reactions (˜600 μg protein, 50 μM substrate dissolved in DMSO, and the requisite cofactors (e.g., NADPH plus regenerating system) were run as described previously, with the identical protocols for product analysis (Jennewein et al., Proc. Natl. Acad. Sci. USA, 98:13595-13600, 2001). DMSO was without influence on the reaction. For kinetic evaluation, following the establishment of linear reaction conditions in protein concentration and time, the response to substrate concentration was plotted by the Michaelis-Menten method (Sigmaplot 7.0) using the calibrated radio-HPLC protocol for product determination Data from three independent experiments were pooled and the line of best fit taken (R^2>0.99).

[2] = substrate: C=C1CCC[C@@]2(C)CCC3=C(C)CC[C@@H](C[C@H]12)C3(C)C; experiment: as above; type: biochemical, Taxus cuspidata; settings: other: Sf9 microsomes, recombinant enzyme, 200 μM NADPH plus regenerating system; pH 7.5
Procedure: as §1

[3] = substrate: [H][C@]12CCC(C)=C(CC[C@]3(C)CCC=C(C)[C@@]3([H])C1)C2(C)C; experiment: Kinetic evaluation of taxadiene isomers, average of recombinant and T. media microsomes (FIG. 4); type: biochemical, Taxus; settings: other: average of recombinant (Sf9) and T. media microsomes; substrate 1 to 500 μM
Procedure: (§2) Taxa-4(20),11(12)-diene (◯) and taxa-4(5),11(12)-diene (●) were evaluated with microsomes from S. formgiperda cells enriched with 50 pmol recombinant taxoid 5α-hydroxylase (A), and with microsomes from T. media suspension cells containing about 50 pmol of total native cytochrome P450 (B). Substrate Concentration range was varied from 1 to 500 μM in all cases.

[4] = substrate: C=C1CCC[C@@]2(C)CCC3=C(C)CC[C@@H](C[C@H]12)C3(C)C; experiment: as above; type: biochemical, Taxus; settings: other: average of recombinant (Sf9) and T. media microsomes; substrate 1 to 500 μM
Procedure: as §2

Protein	Km [1]	Km [2]	Km [3]	Km [4]
recombinant taxoid 5α-hydroxylase (clone S1) (Taxus cuspidata) (protein, the S1 ORF was amplified using Pfu DNA polymerase and gene-specific primers containing a BamHI site immediately upstream of the start codon; made in house; host or cells: Spodoptera frugiperda Sf9 cells (baculovirus, pFastBac1); microsomal membranes) MDALYKSTVAKFNEVTQLDCSTESFSIALSAIAGILLLLLLFRSKRHSSLKLPPGKLGIPFIGESFIFLRALRSNSLEQFFDERVKKFGLVFKTSLIGHPTVVLCGPAGNRLILSNEEKLVQMSWPAQFMKLMGENSVATRRGEDHIVMRSALAGFFGPGALQSYIGKMNTEIQSHINEKWKGKDEVNVLPLVRELVFNISAILFFNIYDKQEQDRLHKLLETILVGSFALPIDLPGFGFHRALQGRAKLNKIMLSLIKKRKEDLQSGSATATQDLLSVLLTFRDDKGTPLTNDEILDNFSSLLHASYDTTTSPMALIFKLLSSNPECYQKVVQEQLEILSNKEEGEEITWKDLKAMKYTWQVAQETLRMFPPVFGTFRKAITDIQYDGYTIPKGWKLLWTTYSTHPKDLYFNEPEKFMPSRFDQEGKHVAPYTFLPFGGGQRSCVGWEFSKMEILLFVHHFVKTFSSYTPVDPDEKISGDPLPPLPSKGFSIKLFPETIVN	24 ± 2.5 µM	16 ± 3.2 µM	–	–
taxoid 5α-hydroxylase (Taxus cuspidata) (protein) MDALYKSTVAKFNEVTQLDCSTESFSIALSAIAGILLLLLLFRSKRHSSLKLPPGKLGIPFIGESFIFLRALRSNSLEQFFDERVKKFGLVFKTSLIGHPTVVLCGPAGNRLILSNEEKLVQMSWPAQFMKLMGENSVATRRGEDHIVMRSALAGFFGPGALQSYIGKMNTEIQSHINEKWKGKDEVNVLPLVRELVFNISAILFFNIYDKQEQDRLHKLLETILVGSFALPIDLPGFGFHRALQGRAKLNKIMLSLIKKRKEDLQSGSATATQDLLSVLLTFRDDKGTPLTNDEILDNFSSLLHASYDTTTSPMALIFKLLSSNPECYQKVVQEQLEILSNKEEGEEITWKDLKAMKYTWQVAQETLRMFPPVFGTFRKAITDIQYDGYTIPKGWKLLWTTYSTHPKDLYFNEPEKFMPSRFDQEGKHVAPYTFLPFGGGQRSCVGWEFSKMEILLFVHHFVKTFSSYTPVDPDEKISGDPLPPLPSKGFSIKLFPRP	–	–	36 µM	21.5 µM
